# Assay results published in patent US20220332829A1 (NANJING SANHOME PHARMACEUTICAL, published 2022).
# T1: B7-H3 on surface of tumor cell (786-0, MDA-MB-231, Raji-B7-H3 cells) (human, UniProt Q5ZPR3 29-534)
# T1 construct: whole, on cells; The making of Raji-B7-H3 cells is not described; also called B7-H3 on the surface of tumor cells; human B7-H3
# T1 sequence (looked up): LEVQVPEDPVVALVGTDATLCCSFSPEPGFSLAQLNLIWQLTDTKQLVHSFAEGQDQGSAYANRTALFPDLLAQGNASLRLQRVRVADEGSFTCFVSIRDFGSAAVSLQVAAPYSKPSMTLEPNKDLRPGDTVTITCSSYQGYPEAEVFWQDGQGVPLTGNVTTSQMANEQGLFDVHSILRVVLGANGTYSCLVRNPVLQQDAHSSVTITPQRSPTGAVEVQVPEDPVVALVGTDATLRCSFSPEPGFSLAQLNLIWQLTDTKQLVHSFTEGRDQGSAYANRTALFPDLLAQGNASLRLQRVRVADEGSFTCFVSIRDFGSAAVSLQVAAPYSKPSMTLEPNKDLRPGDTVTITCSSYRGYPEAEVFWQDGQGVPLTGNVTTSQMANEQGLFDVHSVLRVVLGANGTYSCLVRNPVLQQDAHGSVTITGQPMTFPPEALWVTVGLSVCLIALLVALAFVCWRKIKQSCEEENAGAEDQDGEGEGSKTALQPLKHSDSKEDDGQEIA
# T2: human 4Ig-B7-H3-His protein (human, UniProt Q5ZPR3 29-466)
# T2 construct: also called human B7-H3 protein
# T2 sequence: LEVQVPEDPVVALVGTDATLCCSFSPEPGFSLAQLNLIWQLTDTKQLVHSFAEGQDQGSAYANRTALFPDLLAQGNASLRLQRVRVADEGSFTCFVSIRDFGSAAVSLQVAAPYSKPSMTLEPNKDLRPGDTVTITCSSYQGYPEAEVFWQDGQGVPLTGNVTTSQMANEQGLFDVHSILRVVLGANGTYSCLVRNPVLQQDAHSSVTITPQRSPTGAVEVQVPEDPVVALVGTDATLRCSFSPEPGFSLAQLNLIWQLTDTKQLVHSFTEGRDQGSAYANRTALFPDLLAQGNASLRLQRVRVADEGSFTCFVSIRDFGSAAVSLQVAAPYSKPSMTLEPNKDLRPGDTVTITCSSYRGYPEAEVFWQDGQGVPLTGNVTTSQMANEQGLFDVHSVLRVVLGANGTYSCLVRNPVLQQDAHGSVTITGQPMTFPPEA
# T3: human 2Ig-B7-H3-His protein (human, UniProt Q5ZPR3 29-463)
# T3 sequence: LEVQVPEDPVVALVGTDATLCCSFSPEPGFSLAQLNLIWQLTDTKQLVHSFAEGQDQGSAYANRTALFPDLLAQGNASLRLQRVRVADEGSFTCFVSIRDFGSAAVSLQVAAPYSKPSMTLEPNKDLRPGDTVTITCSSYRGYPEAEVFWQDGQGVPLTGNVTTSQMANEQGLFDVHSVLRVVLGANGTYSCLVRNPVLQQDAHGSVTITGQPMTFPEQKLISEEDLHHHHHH
# Assays:
# [1] = biological target: T1, B7-H3 on surface of tumor cell (786-0, …); test: FACS on 786-0 cells
# Method: (§1) The binding activity of antibodies to B7-H3 on the surface of tumor cells was analyzed by FACS. Mean fluorescence intensity (MFI) and EC₅₀ detected by FACS indicate the binding activity of the antibody to cells. After 786-0 and MDA-MB-231 cells were digested, they were resuspended in 2% FBS-PBS solution and counted. After raji-B7-H3 cells were collected, they were resuspended in 2% FBS-PBS and counted. The above cells were plated in a cell plate with 1×10⁵ cells per well. The anti-B7-H3 antibody of the present disclosure was used as the primary antibody and added to cell plates in gradient dilution starting from 20 μg/mL with a total of 8 concentrations: 20,000 ng/mL, […], 2,000 ng/mL, 400 ng/mL, 80 ng/mL, 16 ng/mL, 3.2 ng/mL, and 0.64 ng/mL respectively. The plates were incubated at 4° C. for 1 h with hBRCA84D as the positive control antibody. PE-Anti-Human IgG (Biolegend, Cat. No. 409303, 1.25 μl/well) was used as the secondary antibody, washed, and detected for the fluorescence intensity generated by the binding of the antibody to the cell surface by a flow cytometer.
# [2] = biological target: T1, B7-H3 on surface of tumor cell (786-0, …); test: cell-based or functional assay
# [3] = biological target: T1, B7-H3 on surface of tumor cell (786-0, …); test: FACS on Raji-B7-H3 cells
# Method: as §1
# [4] = biological target: T2, human 4Ig-B7-H3-His protein; test: ELISA, plate coated with human 4Ig-B7-H3-His, detection with anti-human IgG HRP, OD450
# Method: (§2) The binding activity of antibodies was analyzed by ELISA. 96-well ELISA plates were coated with human 4Ig-B7-H3-His protein or 2Ig-B7-H3-His protein (1 μg/well, prepared in Examples 1 and 2) and incubated overnight at 4° C. The plates were washed 3 times with 1×PBST and then blocked with 5% skim milk at 37° C. for 2 h. After washing 3 times with 1×PBST, the anti-B7-H3 antibody of the present disclosure was used as the primary antibody and added to the ELISA plates in 5-fold gradient dilution starting from 2 μg/mL with a total of 8 concentrations: 2,000 ng/mL, 400 ng/mL, 80 ng/mL, 16 ng/mL, 3.2 ng/mL, 0.64 ng/mL, 0.128 ng/mL and 0.0256 ng/mL respectively. The plates were incubated at 37° C. for 2 h with hBRCA84D as the positive control antibody. After washing 5 times with 1×PBST, Anti-Human IgG HRP (Jackson, 109-035-003, 1:5000) was used as the secondary antibody and incubated at 37° C. for 1 h. After washing 5 times with 1×PBST, color developing solution TMB was added to the plate, and microplate reader (Thermo, Multiskan FC) was used to read OD450 value after termination of the reaction. EC₅₀ was generated by GraphPad.
# [5] = biological target: T3, human 2Ig-B7-H3-His protein; test: ELISA, plate coated with human 2Ig-B7-H3-His, detection with anti-human IgG HRP, OD450
# Method: as §2
binder,measurement,setting,value
"hBRCA84D (antibody, human IgG1, kappa, V domains shown, Humanized antibody from WO2011/109400; also called positive control antibody hBRCA84D; control antibody hBRCA84D) VH: EVQLVESGGGLVQPGGSLRLSCAASGFTFSSFGMHWVRQAPGKGLEWVAYISSDSSAIYYADTVKGRFTISRDNAKNSLYLQMNSLRDEDTAVYYCGRGRENIYYGSRLDYWGQGTTVTVSS VL: DIQLTQSPSFLSASVGDRVTITCKASQNVDTNVAWYQQKPGKAPKALIYSASYRYSGVPSRFSGSGSGTDFTLTISSLQPEDFATYYCQQYNNYPFTFGQGTKLEIKR",EC50,[1],0.226 µg/mL
same,Mean fluorescence intensity (MFI),[1],233000
same,"EC50 Ratio (ADCC, LDH method; EC50 of hBRCA84D divided by EC50 of the antibody; 786-0 target cells, human PBMC effectors)",[2],1
same,Mean fluorescence intensity (MFI),[3],233000
same,EC50 (read off the curve),[4],~5 ng/mL
same,EC50 (read off the curve),[5],~10 ng/mL
